Measurements: patent publication US7109167
No end group written: not given here.

Tests used:
[1] = target: endothelial cell receptor for TKPPR on human aortic endothelial cells (HAEC); assay: fluorescent beads on confluent HAEC, static, Experiment 1, image analysis
[2] = target: endothelial cell receptor for TKPPR on human aortic endothelial cells (HAEC); assay: competition on HAEC: tuftsin 5 µM against 1% BRU-114 bubbles
[3] = target: endothelial cell receptor for TKPPR on human aortic endothelial cells (HAEC); assay: competition on HAEC: tuftsin 10 µM against 1% BRU-114 bubbles
[4] = target: endothelial cell receptor for TKPPR on human aortic endothelial cells (HAEC); assay: competition on HAEC: tuftsin 50 µM against 1% BRU-114 bubbles
[5] = target: endothelial cell receptor for TKPPR on human aortic endothelial cells (HAEC); assay: competition on HAEC: tuftsin 25 µM against 1% BRU-114 bubbles
[6] = target: endothelial cell receptor for TKPPR on human aortic endothelial cells (HAEC); assay: competition on HAEC: tuftsin 100 µM against 1% BRU-114 bubbles
VEGF receptors on HUVECs = assay: competition of 125I-VEGF binding to HUVECs
[7] = target: endothelial cell receptor for TKPPR on human aortic endothelial cells (HAEC); assay: beads perfused over HAEC in a parallel plate flow cell, 1.53 dynes/cm^2

GRGDSP (also: coupled by EDAC to carboxylate-modified microspheres) [GRGDSP-conjugated fluorescent microspheres]
Integrated density of bound beads (arbitrary units) [1]: 28.6

TKPR [Tuftsin (TKPR)]
Bubbles Bound [2]: 1150 bubbles
Bubbles Bound [3]: 976 bubbles
Bubbles Bound [4]: 904 bubbles
Bubbles Bound [5]: 1170 bubbles
Bubbles Bound [6]: 556 bubbles

B1: TKPPR tetramer BRU-326, OG-(TKPPR)4 (peptide)
peptide: TKPPR-OH
modifications: not fully specified (N-terminus); printed as OG-(TKPPR)4; also: tetramer: four TKPPR chains joined via branched tetra-acid scaffold
IC50 (VEGF receptors on HUVECs): 10 µM

TKPPR (also: coupled by EDAC to carboxylate-modified microspheres) [TKPPR-conjugated red fluorescent microspheres]
beads bound at 1.53 dynes/cm^2 [7]: 86 beads
Integrated density of bound beads (arbitrary units) [1]: 230
